Experimental data published in PMC4486934.

System: var2CSA (PfEMP1) (Plasmodium falciparum CS2)
Assay: cell binding, microfluidic partitioning and qPCR
Details: 2'-fluoro pyrimidines, TBB: 20 mM HEPES pH 7.4, 150 mM NaCl, 2 mM CaCl2, room temperature (cell binding); for binding signal: CS2 vs uninfected RBCs

Sequence “GGGAGCUCAGAAUAAACGCUCAAAUGUCUCCAGCUCUUGUGGCGAACCCAAGCGGGUUGACCAGAAUGCAUCAUUCGACAUGAGGCCCGGAUCCGGC [scr8.1-1]” has a binding signal (defines non-specific threshold, BLI in TBB) of 1.24 ddCp.

“GGGAGCUCAGAAUAAACGCUCAACAACGGAUCACACGCAAGCGAAUCUAUGUCCUUCGGGUCUAAGGGUCGCUUUCGACAUGAGGCCCGGAUCCGGC [8.1-1]” showed a binding signal (100 nM, P = 0.0002, BLI in …) of 3.12 ddCp and a Kd (apparent Kd on CS2 infected RBCs, no enrichment on DC-J, BLI in TBB) of 14 nM.
